Measured values from US20030068675, “Position dependent recognition of GNN nucleotide triplets by zinc fingers” (published 2003).

Key:
Assay in all cases: EMSA
Details in all cases: tags: MBP fusion
[1] = biological target: ZFP SBS#233 (synthetic)
Procedure: (§1) Affinity is measured by titrating purified protein against a fixed amount of labeled double-stranded oligonucleotide target. The target typically comprises the natural binding site sequence flanked by the 3 bp found in the natural sequence and additional, constant flanking sequences. The natural binding site is typically 9 bp for a three-finger protein and 2×9 bp +intervening bases for a six finger ZFP. […] For the assay the target is added at a concentration of 1 nM or lower (the actual concentration is kept at least 10-fold lower than the expected dissociation constant), purified ZFPs are added at various concentrations, and the reaction is allowed to equilibrate for at least 45 min. In addition the reaction mixture also contains 10 mM Tris (pH 7.5), 100 mM KCl, 1 mM MgCl2, 0.1 mM ZnCl2, 5 mM DTT, 10% glycerol, 0.02% BSA. (NB: in earlier assays poly d(IC) was also added at […].) The equilibrated reactions are loaded onto a 10% polyacrylamide gel, which has been pre-run for 45 min in Tris/glycine buffer, then bound and unbound labeled target is resolved by electrophoresis at 150V.

[2] = biological target: ZFP SBS#232 (synthetic)
Procedure: as §1

[3] = biological target: T1, ZFP SBS#207 (synthetic)
T1 chain: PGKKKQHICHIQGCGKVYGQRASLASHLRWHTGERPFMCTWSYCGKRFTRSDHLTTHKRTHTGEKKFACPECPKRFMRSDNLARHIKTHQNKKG
Procedure: as §1

[4] = biological target: ZFP SBS#289 (synthetic)
Procedure: as §1

[5] = biological target: T2, ZFP SBS#225 (synthetic, UniProt P08047)
T2 chain: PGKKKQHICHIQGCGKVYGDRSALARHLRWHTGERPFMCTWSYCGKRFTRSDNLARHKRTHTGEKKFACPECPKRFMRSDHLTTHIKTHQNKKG
Procedure: as §1

[6] = biological target: T3, ZFP SBS#264 (synthetic)
T3 chain: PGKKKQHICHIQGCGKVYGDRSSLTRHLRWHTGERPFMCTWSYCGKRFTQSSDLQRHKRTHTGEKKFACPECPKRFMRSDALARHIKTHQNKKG
Procedure: as §1

[7] = biological target: T4, ZFP SBS#265 (synthetic)
T4 chain: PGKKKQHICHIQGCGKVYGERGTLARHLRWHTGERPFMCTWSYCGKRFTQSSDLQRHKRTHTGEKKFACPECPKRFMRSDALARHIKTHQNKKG
Procedure: as §1

[8] = biological target: T5, ZFP SBS#223 (synthetic)
T5 chain: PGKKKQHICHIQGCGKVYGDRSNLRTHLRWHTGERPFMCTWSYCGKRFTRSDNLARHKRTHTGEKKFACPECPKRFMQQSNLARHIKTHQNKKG
Procedure: as §1

[9] = biological target: T6, ZFP SBS#237 (synthetic, UniProt P08047)
T6 chain: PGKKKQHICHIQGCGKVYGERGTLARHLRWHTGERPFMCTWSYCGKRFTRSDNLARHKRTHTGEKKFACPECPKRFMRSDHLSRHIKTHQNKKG
Procedure: as §1

[10] = biological target: T7, ZFP SBS#238 (synthetic, UniProt P08047)
T7 chain: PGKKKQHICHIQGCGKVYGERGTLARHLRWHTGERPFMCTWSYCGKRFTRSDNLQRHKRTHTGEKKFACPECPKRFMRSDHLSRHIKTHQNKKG
Procedure: as §1

[11] = biological target: T8, ZFP SBS#243 (synthetic)
T8 chain: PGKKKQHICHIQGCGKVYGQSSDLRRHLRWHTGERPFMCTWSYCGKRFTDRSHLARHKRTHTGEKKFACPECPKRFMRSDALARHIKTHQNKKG
Procedure: as §1

[12] = biological target: T9, ZFP SBS#293 (synthetic)
T9 chain: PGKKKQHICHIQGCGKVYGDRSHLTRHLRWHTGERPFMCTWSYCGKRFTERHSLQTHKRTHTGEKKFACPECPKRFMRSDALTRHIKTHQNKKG
Procedure: as §1

[13] = biological target: ZFP SBS#242 (synthetic, UniProt P08047)
Procedure: as §1

[14] = biological target: T10, ZFP SBS#272 (synthetic)
T10 chain: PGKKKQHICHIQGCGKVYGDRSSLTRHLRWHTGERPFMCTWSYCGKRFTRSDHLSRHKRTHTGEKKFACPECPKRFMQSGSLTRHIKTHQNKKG
Procedure: as §1

[15] = biological target: ZFP SBS#244 (synthetic)
Procedure: as §1

[16] = biological target: ZFP SBS#245 (synthetic)
Procedure: as §1

[17] = biological target: ZFP SBS#211 (synthetic)
Procedure: as §1

[18] = biological target: T11, ZFP SBS#210 (synthetic)
T11 chain: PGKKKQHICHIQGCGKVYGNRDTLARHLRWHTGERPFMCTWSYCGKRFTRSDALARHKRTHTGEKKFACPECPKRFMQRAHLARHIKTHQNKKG
Procedure: as §1

[19] = biological target: T12, ZFP SBS#212 (synthetic)
T12 chain: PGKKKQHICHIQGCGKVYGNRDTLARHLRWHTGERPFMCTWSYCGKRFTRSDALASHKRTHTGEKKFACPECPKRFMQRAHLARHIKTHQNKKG
Procedure: as §1

[20] = biological target: ZFP SBS#209 (synthetic)
Procedure: as §1

[21] = biological target: ZFP SBS#239 (synthetic)
Procedure: as §1

[22] = biological target: T13, ZFP SBS#236 (synthetic, UniProt P08047)
T13 chain: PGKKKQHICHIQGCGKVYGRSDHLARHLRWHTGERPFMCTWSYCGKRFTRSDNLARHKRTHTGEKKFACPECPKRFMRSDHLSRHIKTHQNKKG
Procedure: as §1

[23] = biological target: T14, ZFP SBS#283 (synthetic)
T14 chain: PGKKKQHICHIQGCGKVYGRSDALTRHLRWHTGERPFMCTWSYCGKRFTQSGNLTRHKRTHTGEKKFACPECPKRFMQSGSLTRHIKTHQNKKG
Procedure: as §1

[24] = biological target: T15, ZFP SBS#269 (synthetic)
T15 chain: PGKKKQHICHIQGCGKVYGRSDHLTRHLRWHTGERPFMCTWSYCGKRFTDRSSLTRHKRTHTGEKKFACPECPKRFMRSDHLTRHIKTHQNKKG
Procedure: as §1

[25] = biological target: T16, ZFP SBS#270 (synthetic)
T16 chain: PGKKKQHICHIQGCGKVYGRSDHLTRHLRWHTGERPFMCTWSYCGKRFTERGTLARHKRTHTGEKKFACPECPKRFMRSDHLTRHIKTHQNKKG
Procedure: as §1

[26] = biological target: ZFP SBS#240 (synthetic)
Procedure: as §1

[27] = biological target: T17, ZFP SBS#235 (synthetic)
T17 chain: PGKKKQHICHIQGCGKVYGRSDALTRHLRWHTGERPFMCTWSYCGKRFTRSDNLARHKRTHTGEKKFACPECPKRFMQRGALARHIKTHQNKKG
Procedure: as §1

[28] = biological target: T18, ZFP SBS#205 (synthetic)
T18 chain: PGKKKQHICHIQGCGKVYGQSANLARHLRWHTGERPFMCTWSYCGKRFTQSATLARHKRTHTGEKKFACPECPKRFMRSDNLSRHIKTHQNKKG
Procedure: as §1

[29] = biological target: T19, ZFP SBS#250 (synthetic)
T19 chain: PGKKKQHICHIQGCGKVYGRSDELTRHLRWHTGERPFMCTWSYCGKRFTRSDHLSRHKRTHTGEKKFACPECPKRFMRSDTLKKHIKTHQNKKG
Procedure: as §1

[30] = biological target: ZFP SBS#249 (synthetic)
Procedure: as §1

[31] = biological target: ZFP SBS#247 (synthetic)
Procedure: as §1

[32] = biological target: ZFP SBS#246 (synthetic)
Procedure: as §1

[33] = biological target: ZFP SBS#217 (synthetic)
Procedure: as §1

ZFP SBS#289 (synthetic), sequence (chain, as listed by the source): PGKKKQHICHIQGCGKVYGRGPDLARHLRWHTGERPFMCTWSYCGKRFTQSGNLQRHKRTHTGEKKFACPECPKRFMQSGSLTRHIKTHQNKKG
ZFP SBS#233 (synthetic), sequence (chain, as listed by the source): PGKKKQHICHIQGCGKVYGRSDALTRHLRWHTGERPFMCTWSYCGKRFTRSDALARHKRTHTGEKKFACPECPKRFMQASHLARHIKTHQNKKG
ZFP SBS#246 (synthetic), sequence (chain, as listed by the source): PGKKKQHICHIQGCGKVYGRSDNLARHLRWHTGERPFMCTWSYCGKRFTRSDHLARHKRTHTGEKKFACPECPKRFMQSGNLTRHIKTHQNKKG
ZFP SBS#245 (synthetic), sequence (chain, as listed by the source): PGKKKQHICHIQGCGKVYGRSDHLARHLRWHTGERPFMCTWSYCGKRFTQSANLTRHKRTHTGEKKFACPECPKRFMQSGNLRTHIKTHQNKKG
ZFP SBS#240 (synthetic), sequence (chain, as listed by the source): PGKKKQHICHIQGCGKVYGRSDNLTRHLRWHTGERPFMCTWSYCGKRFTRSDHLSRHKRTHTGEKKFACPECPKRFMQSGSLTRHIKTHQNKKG
ZFP SBS#242, sequence (P08047 other isoform, or with tags, fused parts or gaps): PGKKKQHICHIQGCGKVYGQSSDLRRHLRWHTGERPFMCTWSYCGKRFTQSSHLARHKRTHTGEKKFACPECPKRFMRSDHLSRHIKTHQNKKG
ZFP SBS#209 (synthetic), sequence (chain, as listed by the source): as the sequence (P08047 other isoform, or with tags, fused parts or gaps) above, with D23A, R25A, Q50R, S52D, H53A, R78Q, S79R, D80A, S83A counted along it
ZFP SBS#249 (synthetic), sequence (chain, as listed by the source): as the sequence (P08047 other isoform, or with tags, fused parts or gaps) above, with Q20R, S22D, D23E, R25T, Q50R, S52D, A55S, H81E, S83R counted along it
ZFP SBS#217 (synthetic), sequence (chain, as listed by the source): as the sequence (P08047 other isoform, or with tags, fused parts or gaps) above, with S21R, D23A, R25A, Q50D, S51R, H53A, H81N, S83A counted along it
ZFP SBS#211 (synthetic), sequence (chain, as listed by the source): as the sequence (P08047 other isoform, or with tags, fused parts or gaps) above, with D23A, R25A, Q50R, S52D, H53A, R56S, R78Q, S79R, D80A, S83A counted along it

B1: GGTGTGGTG (dsDNA)
DNA 1: GGTGTGGTG
DNA 2: CACCACACC
[1]
  Kd: 100 nM
[2]
  Kd: 50 nM

B2: GAGTGGTTA (dsDNA)
DNA 1: GAGTGGTTA
DNA 2: TAACCACTC
[3]
  Kd: 70 nM

B3: GCAGAAGCG (dsDNA)
DNA 1: GCAGAAGCG
DNA 2: CGCTTCTGC
[4]
  Kd: 800 nM

B4: TGGGAGGTC (dsDNA)
DNA 1: TGGGAGGTC
DNA 2: GACCTCCCA
[5]
  Kd: 6 nM

B5: GTGGCTGCC (dsDNA)
DNA 1: GTGGCTGCC
DNA 2: GGCAGCCAC
[6]
  Kd: 27 nM
[7]
  Kd: 600 nM

B6: GATGAGTAC (dsDNA)
DNA 1: GATGAGTAC
DNA 2: GTACTCATC
[8]
  Kd: 105 nM

B7: GGGGAGGCC (dsDNA)
DNA 1: GGGGAGGCC
DNA 2: GGCCTCCCC
[9]
  Kd: 0.3 nM
[10]
  Kd: 0.8 nM

B8: GTGGGCGCT (dsDNA)
DNA 1: GTGGGCGCT
DNA 2: AGCGCCCAC
[11]
  Kd: 75 nM

B9: GTGTGCGGC (dsDNA)
DNA 1: GTGTGCGGC
DNA 2: GCCGCACAC
[12]
  Kd: 320 nM

B10: GGGGGTGCT (dsDNA)
DNA 1: GGGGGTGCT
DNA 2: AGCACCCCC
[13]
  Kd: 1 nM

B11: GCAGGGGCC (dsDNA)
DNA 1: GCAGGGGCC
DNA 2: GGCCCCTGC
[14]
  Kd: 20 nM

B12: TAAGAAGGG (dsDNA)
DNA 1: TAAGAAGGG
DNA 2: CCCTTCTTA
[15]
  Kd: 100 nM
[16]
  Kd: 235 nM

B13: GGAGTGGTT (dsDNA)
DNA 1: GGAGTGGTT
DNA 2: AACCACTCC
[17]
  Kd: 140 nM
[18]
  Kd: 65 nM
[19]
  Kd: 400 nM
[20]
  Kd: 35 nM

B14: GGCGGGGAG (dsDNA)
DNA 1: GGCGGGGAG
DNA 2: CTCCCCGCC
[21]
  Kd: 0.4 nM

B15: GGGGAGGGG (dsDNA)
DNA 1: GGGGAGGGG
DNA 2: CCCCTCCCC
[22]
  Kd: 0.3 nM

B16: GCAGAAGTG (dsDNA)
DNA 1: GCAGAAGTG
DNA 2: CACTTCTGC
[23]
  Kd: 2 nM

B17: GGGGCCGGG (dsDNA)
DNA 1: GGGGCCGGG
DNA 2: CCCGGCCCC
[24]
  Kd: 5 nM
[25]
  Kd: 52.5 nM

B18: GCAGGGGAG (dsDNA)
DNA 1: GCAGGGGAG
DNA 2: CTCCCCTGC
[26]
  Kd: 1 nM

B19: GTAGAGGTG (dsDNA)
DNA 1: GTAGAGGTG
DNA 2: CACCTCTAC
[27]
  Kd: 80 nM

B20: GAGGTAGAA (dsDNA)
DNA 1: GAGGTAGAA
DNA 2: TTCTACCTC
[28]
  Kd: 80 nM

B21: GCGGGGGCG (dsDNA)
DNA 1: GCGGGGGCG
DNA 2: CGCCCCCGC
[29]
  Kd: 70 nM
[30]
  Kd: 20 nM

B22: GAAGGGGAG (dsDNA)
DNA 1: GAAGGGGAG
DNA 2: CTCCCCTTC
[31]
  Kd: 2 nM
[32]
  Kd: 2 nM

B23: GAGGTCGTA (dsDNA)
DNA 1: GAGGTCGTA
DNA 2: TACGACCTC
[33]
  Kd: 40 nM
